T1: biotinylated cynomolgus monkey VWF cysteine knot (CK) domain construct (cynomolgus monkey, biotinylated in vitro (BirA) on the biotinylation tag; one N-glycan)
T1 construct: Expressed in HEK293 EBNA cells; disulfide-linked homodimer; also called cyno VWF CK; cyno VWF CK domain; not shown: in vitro biotinylation tag, HRV-3C site and 3 VWF residues before the CK domain
T1 chain: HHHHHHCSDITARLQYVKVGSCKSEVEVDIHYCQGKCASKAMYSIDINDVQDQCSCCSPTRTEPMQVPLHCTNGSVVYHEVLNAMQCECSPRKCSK


Assays:
[1] = target: T2, biotinylated human VWF cysteine knot (CK) domain construct (human, UniProt P04275 2724-2813, biotinylated in vitro (BirA) on the biotinylation tag; one N-glycan); test: SPR, scFv captured via anti-SV5, CK domain injected, pH 5.5, apparent Kd;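 note: scFvs from crude yeast supernatants captured on chip-bound anti-SV5 antibody, Kd computed as koff divided by kon, dimeric CK construct likely makes affinity appear higher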
T2 construct: Expressed in HEK293 EBNA cells; disulfide-linked homodimer; also called human VWF CK; human VWF CK domain; not shown: in vitro biotinylation tag, HRV-3C site and 3 VWF residues before the CK domain

[2] = target: T2, biotinylated human VWF cysteine knot …; test: SPR, scFv captured via anti-SV5, CK domain injected, pH 7.4, apparent Kd;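 note: scFvs from crude yeast supernatants printed on an amine-coupled anti-SV5 lawn, Kd computed as koff over kon, likely overestimating affinity because the CK construct is dimeric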
Excerpt: (§1) Briefly, a sensor chip was activated and coupled with an anti-SV5 mouse monoclonal antibody using amine coupling. The soluble scFvs in crude yeast supernatants were printed on the anti-SV5 lawn. […] From the measured association (kₒₙ) and dissociation (koff) rate constants, an apparent equilibrium dissociation constant (Kd=koff/kₒₙ) was estimated. Due to the dimeric state of the CK construct and consequent possibility for simultaneous binding of captured scFv to both monomers in the CK dimer, the SPR setup was expected to overestimate the binding affinity.

[3] = target: T1, biotinylated cynomolgus monkey VWF …; test: as above
Excerpt: as §1

| Kd [1] | Kd [2] | Kd [3] | Binder |
| --- | --- | --- | --- |
| 0.621 nM | 2.79 nM | 1.17 nM | 965_Lib4_scFv (scFv, VH-linker-VL; not shown: C-terminal 3xFLAG and SV5 tags) scFv: QVQLQESGPGLVKPSQTLSLTCTVSGASFGDNYWSWIRQPPGKGLEWIGYIDTSGSSDYNPSLKSRVTMSVDTSKNQFSLKVNSVTAADTAVYYCARDALGYYYMDVWGKGTTVTVSSSGGSTITSYNVYYTKLSSSGTEIVMTQSPATLSLSPGERATLSCRASQGISGRLAWYQQKPGQAPRLLIYDASARASGIPARFSGSGSGTDFTLTISSLEPEDFAVYYCQQYGTSPYTFGGGTKVEIK |
| 1.4 nM | 1.77 nM | 1.21 nM | 96_Lib4_scFv (scFv, VH-linker-VL; not shown: C-terminal 3xFLAG and SV5 tags) scFv: QVQLQESGPGLVKPSQTLSLTCTVSGESFSTSYWSWIRQPPGKGLEWIGYITHSGYTDYNPSLKSRVTMSVDTSKNQFSLKVNSVTAADTAVYYCARGGRFPFWYFDLWGRGSLVTVSSSGGSTITSYNVYYTKLSSSGTEIVMTQSPATLSLSPGERATLSCRASRSIGSNLAWYQQKPGQAPRLLIYGATTRATGIPARFSGSGSGTDFTLTISSLEPEDFAVYYCQQYKNDATFGGGTKVEIK |
| 3.36 nM | 2.7 nM | 0.733 nM | Lib4_P2_A10_scFv (scFv, VH-linker-VL; not shown: C-terminal 3xFLAG and SV5 tags) scFv: QVQLQESGPGLVKPSQTLSLTCTVSGASLGHQYWSWIRQPPGKGLEWIGYIDTSGSTDYNPSLKSRVTMSVDTSKNQFSLKVNSVTAADTAVYYCARVANYYYYMDVWGKGTTVTVSSSGGSTITSYNVYYTKLSSSGTEIVMTQSPATLSLSPGERATLSCRASQSVSNRLAWYQQKPGQAPRLLIYDASNRATGIPARFSGSGSGTDFTLTISSLEPEDFAVYYCQQYFITPSTFGGGTKVEIK |
| 1.91 nM | 2.22 nM | 1.36 nM | 4956_Lib1_scFv (scFv, VH-linker-VL; not shown: C-terminal 3xFLAG and SV5 tags) scFv: QVQLVQSGAEVKKPGASVKVSCKVSGYTLTSNYIHWVRQAPGKGLEWMGGFNPSSGSTIYAQKFQGRVTMTEDTSTDTAYMELSSLKSEDTAVYYCARTLYDFWSGYLDAFDIWGQGTMVTVSSSGGSTITSYNVYYTKLSSSGTDIQMTQSPSSVSASVGDRVTITCRASQNIRSSLAWYQQKPGKAPKLLIYAASNLEPGVPSRFSGSGSGTDFTLTISSLQPEDFANYYCQQYEDTPLTFGGGTKVEIK |
| 0.859 nM | 3.7 nM | 1.05 nM | 69_Lib8_scFv (scFv, VH-linker-VL; not shown: C-terminal 3xFLAG and SV5 tags) scFv: EVQLVESGGGLVQPGRSLRLSCAASAFTFSNYDMHWVRQAPGKGLEWVSAISGSGDTSDYADSVEGRFTISRDNAKNSLYLQMNSLRAEDTAVYYCVRASWYGTFFDYWGQGTLVTVSSSGGSTITSYNVYYTKLSSSGTDIQMTQSPSSLSASVGDRVTITCRASQSVSGWLAWYQQKPGKAPKLLIYGTSTLQSGVPSRFSGSGSGTDFTLTISSLQPEDVATYYCQQSYSAPYTFGGGTKVEIK |
| 13.6 nM | 4.26 nM | 2.42 nM | 4675_Lib4_scFv (scFv, VH-linker-VL; not shown: C-terminal 3xFLAG and SV5 tags) scFv: QVQLQESGPGLVKPSQTLSLTCTVSGFSLTSHPEGVNWIRQPPGKGLEWIGYIAHSGTTDYNPSLKSRVTMSVDTSKNQFSLKVNSVTAADTAVYYCARAYGDSDAFDIWGQGTMVTVSSSGGSTITSYNVYYTKLSSSGTEIVMTQSPATLSLSPGERATLSCRASQSIGRNLAWYQQKPGQAPRLLIYGASKRVTGIPARFSGSGSGTDFTLTISSLEPEDFAVYYCQQYSTWPTFGGGTKVEIK |

Further lines, the binder ahead of its results:

| Binder | Kd [1] | Kd [2] | Kd [3] |
| --- | --- | --- | --- |
| 76_Lib4_scFv (scFv, VH-linker-VL; not shown: C-terminal 3xFLAG and SV5 tags) scFv: QVQLQESGPGLVKPSQTLSLTCTVSGVSISNHYWSWIRQPPGKGLEWIGYIDESGSTDYNPSLKSRVTMSVDTSKNQFSLKVNSVTAADTAVYYCARVSWGYYAMDVWGQGTTVTVSSSGGSTITSYNVYYTKLSSSGTEIVMTQSPATLSLSPGERATLSCRASQGVSGHLAWYQQKPGQAPRLLIYETSKRATGIPARFSGSGSGTDFTLTISSLEPEDFAVYYCQQYNDYPLGFGGGTKVEIK | 0.366 nM | 3.91 nM | 1.29 nM |
| Lib6_P3_A8_scFv (scFv, VH-linker-VL; not shown: C-terminal 3xFLAG and SV5 tags) scFv: EVQLVQSGAEVKKPGASVKVSCKASGYRFTNYDISWVRQAPGQGLEWMGGINPSSGITIYAQKLQGRGTMTTDPSTSTAYMELRSLRSDDTAVYYCARGAAYGDYLDYWGQGTLVTVSSSGGSTITSYNVYYTKLSSSGTESALTQPASVSGSPGQSITISCTGTNLGEKYVSWYQQHPGKAPKLMIYSTSQRPSGVSNRFSGSKSGNTASLTITGLQAEDEADYYCSSYTASSTPGLVFGGGTKLTVL | 0.872 nM | 2.72 nM | 0.435 nM |
| 4035_Lib1_scFv (scFv, VH-linker-VL; not shown: C-terminal 3xFLAG and SV5 tags) scFv: QVQLVQSGAEVKKPGASVKVSCKVSGYAFPSYGIHWVRQAPGKGLEWMGGISAFTGDTIYAQKFQGRVTMTEDTSTDTAYMELSSLKSEDTAVYYCASGPTNVLTGLMESAEYFQHWGQGTLVTVSSSGGSTITSYNVYYTKLSSSGTDIQMTQSPSSVSASVGDRVTITCRASQGISRDLAWYQQKPGKAPKLLIYGASGRATGVPSRFSGSGSGTDFTLTISSLQPEDFANYYCQQSYITPTTFGGGTKVEIK | 1.41 nM | 1.76 nM | 0.974 nM |
| 11485_Lib1_scFv (scFv, VH-linker-VL; not shown: C-terminal 3xFLAG and SV5 tags) scFv: QVQLVQSGAEVKKPGASVKVSCKVSGAPSAAIIHWVRQAPGKGLEWMGGFTQIFGTAIYAQKFQGRVTMTEDTSTDTAYMELSSLKSEDTAVYYCAREGIGGHDAFDIWGQGTMVTVSSSGGSTITSYNVYYTKLSSSGTDIQMTQSPSSVSASVGDRVTITCRASQDISKNLAWYQQKPGKAPKLLIYKASKLESGVPSRFSGSGSGTDFTLTISSLQPEDFANYYCLHDYTYPPTFGGGTKVEIK | 1.82 nM | 2.22 nM | 3.16 nM |
| 2301_Lib4_scFv (scFv, VH-linker-VL; not shown: C-terminal 3xFLAG and SV5 tags) scFv: QVQLQESGPGLVKPSQTLSLTCTVSGASISTSDHSWSWIRQPPGKGLEWIGYIRDTGSTDYNPSLKSRVTMSVDTSKNQFSLKVNSVTAADTAVYYCAISSTERWKQSFGVDTEYFQHWGQGTLVTVSSSGGSTITSYNVYYTKLSSSGTEIVMTQSPATLSLSPGERATLSCRASRYVSTNLAWYQQKPGQAPRLLIYDAVTRAPGIPARFSGSGSGTDFTLTISSLEPEDFAVYYCQQYHSLPLIFGGGTKVEIK | 3.87 nM | 1.84 nM | 0.803 nM |
| 256_Lib8_scFv (scFv, VH-linker-VL; not shown: C-terminal 3xFLAG and SV5 tags) scFv: EVQLVESGGGLVQPGRSLRLSCAASGFTVSSNAMHWVRQAPGKGLEWVSAIGTFADTDYADSVEGRFTISRDNAKNSLYLQMNSLRAEDTAVYYCAREGAAAGTNFDYWGQGTLVTVSSSGGSTITSYNVYYTKLSSSGTDIQMTQSPSSLSASVGDRVTITCRASQGIRSYLAWYQQKPGKAPKLLIYGASTLEGGVPSRFSGSGSGTDFTLTISSLQPEDVATYYCQQSYSTPPKFGGGTKVEIK | 0.731 nM | 1.76 nM | 0.758 nM |
| Lib4_P2_B1_scFv (scFv, VH-linker-VL; not shown: C-terminal 3xFLAG and SV5 tags) scFv: QVQLVQSGAEVKKPGASVKVSCKVSGDTLSNYAIHWVRQAPGKGLEWMGGINPNAGTTIYAQKFQGRVTMTEDTSTDTAYMELSSLKSEDTAVYYCARDSSSWCPVGYYYYYMDVWGKGTTVTVSSSGGSTITSYNVYYTKLSSSGTDIQMTQSPSSVSASVGDRVTITCRASQSIGDFLAWYQQKPGKAPKLLIYDASHLQTGVPSRFSGSGSGTDFTLTISSLQPEDFANYYCQQTSTIPPTFGGGTKVEIK | 2.12 nM | 1.89 nM | 0.48 nM |
| Lib4_P2_A2_scFv (scFv, VH-linker-VL; not shown: C-terminal 3xFLAG and SV5 tags) scFv: QVQLVQSGAEVKKPGASVKVSCKVSGDTLSNYAIHWVRQAPGKGLEWMGGINPNAGTTIYAQKFQGRVTMTEDTSTDTAYMELSSLKSEDTAVYYCARDSSSWCPVGYYYYYMDVWGKGTTVTVSSSGGSTITSYNVYYTKLSSSGTDIQMTQSPSSVSASVGDRVTITCRASQSIGDFLAWYQQKPGKAPKLLIYDASHLQTGVPSRFSGSGSGTDFTLTISSLQPEDFANYYCQQTSTIPPTFGGGTKVEIK | 0.604 nM | 2.05 nM | 0.305 nM |
| 15244_Lib8_scFv (scFv, VH-linker-VL; not shown: C-terminal 3xFLAG and SV5 tags) scFv: EVQLVESGGGLVQPGRSLRLSCAASGFTFADYDMHWVRQAPGKGLEWVSATSSHGVTTDYADSVEGRFTISRDNAKNSLYLQMNSLRAEDTAVYYCARGAWSGIAARQYIDYWGQGTLVTVSSSGGSTITSYNVYYTKLSSSGTDIQMTQSPSSLSASVGDRVTITCRASQTIGYWLAWYQQKPGKAPKLLIYDASVPESGVPSRFSGSGSGTDFTLTISSLQPEDVATYYCQQSYSYPLTFGGGTKVEIK | 1.05 nM | 3.05 nM | 1.91 nM |
| 27_Lib4_scFv (scFv, VH-linker-VL; not shown: C-terminal 3xFLAG and SV5 tags) scFv: QVQLQESGPGLVKPSQTLSLTCTVSGASFGDHYWSWIRQPPGKGLEWIGYIDATGSIDYNPSLKSRVTMSVDTSKNQFSLKVNSVTAADTAVYYCARVASYYYYMDVWGKGTTVTVSSSGGSTITSYNVYYTKLSSSGTEIVMTQSPATLSLSPGERATLSCRASQSITGSYLAWYQQKPGQAPRLLIYGASDRAPGIPARFSGSGSGTDFTLTISSLEPEDFAVYYCQQYGSFPYTFGGGTKVEIK | 0.443 nM | 2.85 nM | 0.656 nM |
| 399_Lib1_scFv (scFv, VH-linker-VL; not shown: C-terminal 3xFLAG and SV5 tags) scFv: QVQLVQSGAEVKKPGASVKVSCKVSGITFTSDYIHWVRQAPGKGLEWMGGMNPYSNKAIYAQKFQGRVTMTEDTSTDTAYMELSSLKSEDTAVYYCATGGLRIAARTSYFDYWGQGTLVTVSSSGGSTITSYNVYYTKLSSSGTDIQMTQSPSSVSASVGDRVTITCRASMDIAGSLAWYQQKPGKAPKLLIYDTSFRATGVPSRFSGSGSGTDFTLTISSLQPEDFANYYCQQYDNPPRLTFGGGTKVEIK | 0.127 nM | 2.62 nM | 2.05 nM |

— patent publication US20250154283A1 (published 2025)
